Measured values as given in patent publication US10525110B2, “Methods for inducing partial apoptosis using caspase polypeptides” (Bellicum Pharmaceuticals, Inc., priority 2013, dated 2020).
“Also recorded” adds a separate entry of the source.

B1: F404Y: chimeric modified caspase-9 polypeptide (protein)
chain: VDGFGDVGALESLRGNADLAYILSMEPCGHCLIINNVNFCRESGLRTRTGSNIDCEKLRRRFSSLHFMVEVKGDLTAKKMVLALLELARQDHGALDCCVVVILSHGCQASHLQFPGAVYGTDGCPVSVEKIVNIFNGTSCPSLGGKPKLFFIQACGGEQKDHGFEVASTSPEDESPGSNPEPDATPFQEGLRTFDQLDAISSLPTPSDIFVSYSTFPGFVSWRDPKSGSWYVETLDDIFEQWAHSEDLQSLLLRVANAVSVKGIYKQMPGCYNFLRKKLFFKTSASRA
B2: F404W: chimeric modified caspase-9 polypeptide (protein)
chain: VDGFGDVGALESLRGNADLAYILSMEPCGHCLIINNVNFCRESGLRTRTGSNIDCEKLRRRFSSLHFMVEVKGDLTAKKMVLALLELARQDHGALDCCVVVILSHGCQASHLQFPGAVYGTDGCPVSVEKIVNIFNGTSCPSLGGKPKLFFIQACGGEQKDHGFEVASTSPEDESPGSNPEPDATPFQEGLRTFDQLDAISSLPTPSDIFVSYSTFPGFVSWRDPKSGSWYVETLDDIFEQWAHSEDLQSLLLRVANAVSVKGIYKQMPGCWNFLRKKLFFKTSASRA
B3: D330V: chimeric modified caspase-9 polypeptide (protein)
chain: VDGFGDVGALESLRGNADLAYILSMEPCGHCLIINNVNFCRESGLRTRTGSNIDCEKLRRRFSSLHFMVEVKGDLTAKKMVLALLELARQDHGALDCCVVVILSHGCQASHLQFPGAVYGTDGCPVSVEKIVNIFNGTSCPSLGGKPKLFFIQACGGEQKDHGFEVASTSPEDESPGSNPEPDATPFQEGLRTFDQLVAISSLPTPSDIFVSYSTFPGFVSWRDPKSGSWYVETLDDIFEQWAHSEDLQSLLLRVANAVSVKGIYKQMPGCFNFLRKKLFFKTSASRA
B4: S144A: chimeric modified caspase-9 polypeptide (protein)
chain: VDGFGDVGALEALRGNADLAYILSMEPCGHCLIINNVNFCRESGLRTRTGSNIDCEKLRRRFSSLHFMVEVKGDLTAKKMVLALLELARQDHGALDCCVVVILSHGCQASHLQFPGAVYGTDGCPVSVEKIVNIFNGTSCPSLGGKPKLFFIQACGGEQKDHGFEVASTSPEDESPGSNPEPDATPFQEGLRTFDQLDAISSLPTPSDIFVSYSTFPGFVSWRDPKSGSWYVETLDDIFEQWAHSEDLQSLLLRVANAVSVKGIYKQMPGCFNFLRKKLFFKTSASRA
B5: D330S: chimeric modified caspase-9 polypeptide (protein)
chain: VDGFGDVGALESLRGNADLAYILSMEPCGHCLIINNVNFCRESGLRTRTGSNIDCEKLRRRFSSLHFMVEVKGDLTAKKMVLALLELARQDHGALDCCVVVILSHGCQASHLQFPGAVYGTDGCPVSVEKIVNIFNGTSCPSLGGKPKLFFIQACGGEQKDHGFEVASTSPEDESPGSNPEPDATPFQEGLRTFDQLSAISSLPTPSDIFVSYSTFPGFVSWRDPKSGSWYVETLDDIFEQWAHSEDLQSLLLRVANAVSVKGIYKQMPGCFNFLRKKLFFKTSASRA
B6: D330G: chimeric modified caspase-9 polypeptide (protein)
chain: VDGFGDVGALESLRGNADLAYILSMEPCGHCLIINNVNFCRESGLRTRTGSNIDCEKLRRRFSSLHFMVEVKGDLTAKKMVLALLELARQDHGALDCCVVVILSHGCQASHLQFPGAVYGTDGCPVSVEKIVNIFNGTSCPSLGGKPKLFFIQACGGEQKDHGFEVASTSPEDESPGSNPEPDATPFQEGLRTFDQLGAISSLPTPSDIFVSYSTFPGFVSWRDPKSGSWYVETLDDIFEQWAHSEDLQSLLLRVANAVSVKGIYKQMPGCFNFLRKKLFFKTSASRA
B7: D330N: chimeric modified caspase-9 polypeptide (protein)
chain: VDGFGDVGALESLRGNADLAYILSMEPCGHCLIINNVNFCRESGLRTRTGSNIDCEKLRRRFSSLHFMVEVKGDLTAKKMVLALLELARQDHGALDCCVVVILSHGCQASHLQFPGAVYGTDGCPVSVEKIVNIFNGTSCPSLGGKPKLFFIQACGGEQKDHGFEVASTSPEDESPGSNPEPDATPFQEGLRTFDQLNAISSLPTPSDIFVSYSTFPGFVSWRDPKSGSWYVETLDDIFEQWAHSEDLQSLLLRVANAVSVKGIYKQMPGCFNFLRKKLFFKTSASRA
B8: F406T: chimeric modified caspase-9 polypeptide (protein)
chain: VDGFGDVGALESLRGNADLAYILSMEPCGHCLIINNVNFCRESGLRTRTGSNIDCEKLRRRFSSLHFMVEVKGDLTAKKMVLALLELARQDHGALDCCVVVILSHGCQASHLQFPGAVYGTDGCPVSVEKIVNIFNGTSCPSLGGKPKLFFIQACGGEQKDHGFEVASTSPEDESPGSNPEPDATPFQEGLRTFDQLDAISSLPTPSDIFVSYSTFPGFVSWRDPKSGSWYVETLDDIFEQWAHSEDLQSLLLRVANAVSVKGIYKQMPGCFNTLRKKLFFKTSASRA
B9: F406L: chimeric modified caspase-9 polypeptide (protein)
chain: VDGFGDVGALESLRGNADLAYILSMEPCGHCLIINNVNFCRESGLRTRTGSNIDCEKLRRRFSSLHFMVEVKGDLTAKKMVLALLELARQDHGALDCCVVVILSHGCQASHLQFPGAVYGTDGCPVSVEKIVNIFNGTSCPSLGGKPKLFFIQACGGEQKDHGFEVASTSPEDESPGSNPEPDATPFQEGLRTFDQLDAISSLPTPSDIFVSYSTFPGFVSWRDPKSGSWYVETLDDIFEQWAHSEDLQSLLLRVANAVSVKGIYKQMPGCFNLLRKKLFFKTSASRA

These molecules were tested on Activated T cells (assay: Control of proliferation of iCasp9-mutant-transduced T cells over 10 days). Conditions: AP1903 on days 0 and 4.
Format: cell-based
Source text: FIG. 63: iCasp9 mutants with lower sensitivity to AP1903 still control T cell proliferation in vitro. Activated T cells were transduced with retrovirus containing iCasp9 mutants and treated with AP1903 (arrow) on days 0 and 4 and subsequently enumerated for 10 days.

Question: How did the “control of T cell proliferation and survival within 10 days (in words)” value turn out when B1 was run?
Answer: can kill target T cells indistinguishable from wildtype caspase-9 polypeptide or D330A within 10 days

Each molecule was assayed on HEK293T/16 cells (assay: Secreted alkaline phosphatase (SEAP) reporter-based surrogate killing assay). Conditions: AP1903-independent SEAP activity, relative to wild type.
Format: cell-based, human
Method: FIG. 45 provides an analysis of SEAP assays. To examine both basal signaling and AP1903 induced activity, […] early-passage HEK293T/16 cells were co-transfected with various amount of wildtype Caspase and 500 ng of an expression plasmid that uses an SRα promoter to drive SEAP, a marker for cell viability. […] of the mixture was seeded onto each well of a 96-well plate. 100-ul of AP1903 was added at least three hours post-transfection. After addition of AP1903 for at least 24 hours, 100-ul of supernatant was transferred to a 96-well plate and heat denatured at 68 ? C for 30 minutes to inactivate endogenous alkaline phosphatases. For the assay, 4-methylumbelliferyl phosphate substrate was hydrolyzed by SEAP to 4-methylumbelliferon, a metabolite that can be excited with 364 nm and detected with an emission filter of 448 nm. Since SEAP is used as a marker for cell viability, reduced SEAP reading corresponds with increased icaspase-9 activities.
(50A) To examine both basal signaling and AP1903-induced CaspaClDe activity, 10^6 early-passage HEK293T/17 cells were co-transfected with 2 μg of inducible caspase variants along with 500 ng of an expression plasmid using an SRα promoter to transcriptionally regulate SEAP, a surrogate marker for cell viability. 200-μl of the transfection mixture containing plasmids, GeneJammer and HEK293T/17 cells in IMDM+10% FBS (without antibiotics) was seeded into each well of a 96-well plate. To induce caspase activity, 22 μl of serially diluted AP1903 was added 24 hours post-transfection. (50B) To examine basal and AP1903 induced signaling, 100 μl of supernatant was harvested 48 hours post-treatment and heat-denatured at 68° C. for 1 hour to inactivate endogenous alkaline phosphatases. For the assay, 4-methylumbelliferyl phosphate (4-MUP) substrate was hydrolyzed by SEAP to 4-methylumbelliferon, a metabolite with peak excitation at 364 nm and peak emission at 448 nm. Since SEAP is used as a surrogate marker for cell viability, a reduced SEAP reading corresponds to increased caspase-9 activity.
Early passage HEK293T/16 cells (ATCC, Manassas, Va.) were maintained in IMDM, GlutaMAX™ (Life Technologies, Carlsbad, Calif.) supplemented with 10% FBS, 100 U/mL penicillin, and 100 […] until transfection in a humidified, 37° C., 5% CO2/95% air atmosphere. Cells in logarithmic-phase growth were transiently transfected with 800 ng to 2 μg of expression plasmid encoding iCasp9 mutants and 500 ng of an expression plasmid encoding SRα promoter driven SEAP per million cells in 15-mL conical tubes. […] GeneJammer® Transfection Reagent at a ratio of 3 μl per ug of plasmid DNA was used to transiently transfect HEK293T/16 cells in the absence of antibiotics. 100 μl or 2 mL of the transfection mixture was added to each well in 96-well or 6-well plate, respectively. For SEAP assays, log dilutions of AP1903 were added after a minimum 3-hour incubation post-transfection. For western blots, cells were incubated for 20 minutes with AP1903 (10 nM) before harvesting.
Twenty-four to forty-eight hours after AP1903 treatment, ˜100 μl of supernatants were harvested into a 96-well plate and assayed for SEAP activity as described. Briefly, after 65° C. heat denaturation for 45 minutes to reduce background caused by endogenous (and serum-derived) alkaline phosphatases that are sensitive to heat, 5 μl of supernatants was added to 95 μl of PBS and added to 100 μl of substrate buffer, containing 1 μl of 100 mM 4-methylumbelliferyl phosphate (4-MUP; Sigma, St. Louis, Mo.) re-suspended in 2 M diethanolamine. Hydrolysis of 4-MUP by SEAP produces a fluorescent […] with excitation/emission (355/460 nm), which can be easily measured. Assays were performed in black opaque 96-well plates to minimize fluorescence leakage between wells (FIG. 45).

Question: Which “basal activity / basal signaling (in words)” value does the source give for B1 here?
Answer: lower basal signaling; also recorded: lowered basal activity

Question: Which “basal activity / basal signaling (in words)” value does the source give for B2 here?
Answer: lower basal signaling; also recorded: lowered basal activity

Question: With B3 as the molecule, how does the “basal activity / basal signaling (in words)” value read?
Answer: less basal activity than wildtype caspase-9

Question: How did the “basal activity / basal signaling (in words)” value turn out when B4 was run?
Answer: lower basal activity

Question: B5 was tested. Which “basal activity / basal signaling (in words)” value did it give?
Answer: less basal activity than wildtype caspase-9

Question: With B6 as the molecule, how does the “basal activity / basal signaling (in words)” value read?
Answer: less basal activity than wildtype caspase-9

Question: For B7, which “basal activity / basal signaling (in words)” value is on record?
Answer: less basal activity than wildtype caspase-9

Question: Which “basal activity / basal signaling (in words)” value does the source give for B8 here?
Answer: lower basal signaling; also recorded: lowered basal activity

Question: B9 was tested. Which “basal activity / basal signaling (in words)” value did it give?
Answer: lowered basal activity
